In article PMC12412652:

Experiments:
[1] = target: T1, MBP-BAK 16-186, biotinylated (Avi tag, 6-histidine tag) (human), Q16611; test: BLI; Octet RED96; biotinylated BCL-2 family proteins (25 nM) immobilised on streptavidin biosensors, designed protein in solution; 10 mM Hepes pH 7.4, 150 mM NaCl, 3 mM EDTA, 0.05% surfactant P20, 0.5% nonfat dry milk; titrations in triplicate, 1:1 binding model
T1 chain: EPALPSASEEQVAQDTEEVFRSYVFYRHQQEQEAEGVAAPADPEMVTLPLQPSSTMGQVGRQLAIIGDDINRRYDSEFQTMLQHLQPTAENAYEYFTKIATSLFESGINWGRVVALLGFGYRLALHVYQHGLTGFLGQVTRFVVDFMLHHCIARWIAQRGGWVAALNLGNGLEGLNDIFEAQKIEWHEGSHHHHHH

[2] = target: MBP-BAX 1-166 C62S C126S, biotinylated (Avi tag, 6-histidine tag) (human), Q07812; test: as above
MBP-BAX 1-166 C62S C126S, biotinylated (Avi tag, 6-histidine tag) (human), Q07812, sequence (Q07812 1-166 C62S/C126S): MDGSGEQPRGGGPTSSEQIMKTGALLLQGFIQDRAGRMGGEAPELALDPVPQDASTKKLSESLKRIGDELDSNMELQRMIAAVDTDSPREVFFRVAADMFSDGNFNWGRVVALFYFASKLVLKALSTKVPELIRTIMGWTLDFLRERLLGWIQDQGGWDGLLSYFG

Kd [1]: > 4000 nM
Kd [2]: 464 nM
B1: MBP-fused BH3 peptide from BID (domain or fragment)
chain: SESQEDIIRNIARHLAQVGDSMDRSIPPGLVNGL
modifications: not checked
